Measurements: US20230189818A1, “RNA-BASED CONTROL OF BOTRYTIS” (priority 2021, published 2023)

How the values were obtained:
[1] = system: Botrytis cinerea conidia; experiment: In vitro liquid-based assay (fungal biomass, 96-well plates, Cytation 5); assay type: cell-based; details: co-incubated with conidia for three days, vs untreated control
Method: Fungal culture. The Botrytis cinerea was plated each week the culture onto Malt Extract Agar (MEA) from long-term storage on silica stored at 4° C. Three pellets of silica were added to the center of a MEA agar plate and grown at room temperature without parafilm/tape seal for 10-14 days before use; a culture 12 days old was typically used.
Spore and media preparation. A pure culture of B. cinerea was flooded with a 0.01% Triton x-100 solution and conidia scraped free with a sterile hockey stick. The suspension was transferred to two, 1.5 mL centrifuge tubes and centrifuged at 8000 rpm for two minutes. The supernatant was discarded, pelleted spores washed twice with sterile water, then resuspended in sterile water. Conidia were quantified using a hemacytometer and diluted to a final concentration of 5000 conidia/mL stock. A stock solution of 1.25× minimal media was prepared for the assay setup using the components below. Once the stock solution was made, the pH was adjusted to 6.0 using NaOH or KOH, then filter sterilized through a 0.2 um filter tower and vacuum pump and stored at 4° C. The Kao & Michayluk Vitamins (100×) is a filter sterilized stock solution. The stock contains vitamins and amino acids as described by Kao & Michayluk. After filter sterilization, 20 mg of 4-Aminobenzoic acid in 100 ml of solution was added.
Experimental setup. Screening assays were setup in 96-well plates with conidia co-incubated with treatments (controls and dsRNAs) for three days before determining fungal biomass. Each treatment was replicated eight times within a single plate. In each well consisted of 12.5 μl of conidia suspension, 25 μl of the treatment, 12.5 μl of sterile deionized water, and 200 μl of minimal media. Each plate was covered with a breath right film and placed in the percival growth chamber at 23° C. on the shaking platform set to 120 RPM with 24-hour lighting. Plates were incubated for 72 hours before determining fungal growth.
Reading assay plate. Fungal biomass was determined by reading plates with the Cytation 5 machine. The program was set to compile 8 photo slices per well under brightfield microscopy with a 2.5× lens to measure biomass.
Data analysis. Analysis will automatically run on Cytation5 to determine final biomass.
Results are shown in Table 1B representing the average reduction in biomass vs. control for tested sequences across several runs described above.

[2] = system: Botrytis cinerea B05.10 isolate; experiment: Greenhouse whole plant assay (tomato 'Lanai', disease severity); assay type: in vivo; details: 25 g ai/ha; final rating day (rating #3); three runs; four-week-old 'Lanai' tomato plant
Method: Plant Tissue: Tomato seedlings, variety “Lanai”, were seeded then thinned to one plant per pot in an 18 cell tray. […] Plants were grown at a 23° C./17° C. day/night temperature with 10 hours of light each 24-hour period. The RH was ambient and plants were fertilized two times a day every day except for Sunday when they received only water. Plants were grown using Fafard brand medium (70-80% sphagnum peat moss, perlite, vermiculite, dolomite limestone and watering agent) for the entire experiment.
Fungal culture. A Botrytis cinerea B05.10 isolate was maintained, and spores were harvested as previously described for detached leaf assays, except a grape juice additive was not used for inoculum preparation.
Treatment of plants. Whole tomato plants were treated ˜24 hours before inoculation using the spray booth. A 0.07% Silwet L-77 solution was used as a spreader and added for a 0.07% final volume in water (Silwet L-77 brand Phyto Technology Laboratories, S7777 Lot #14D7777001 F). The spray booth deck was set to 20″ above the plant canopy and a twinjet 8002EVS nozzle with 100 mesh filter placed into the spray mechanism. The spray boom was calibrated before treatment application with specs as follows: 50 GPA rate, 1.25 MPH speed, 6′ spray length, single pass, and at 45 psi to get a catch of 133 mL in 10 seconds (+/−6 mL). Each treatment was replicated ten times for each experimental run.
Inoculation. Plants were inoculated using a mist-o-matic applicator, which is pressurized by manual pumping. The inoculum suspension was poured into the mist-o-matic immediately before inoculation in the GH space. The containers were only filled half-way and inoculum was applied evenly to the surface of all foliage with even coverage.
Incubation. Plants were incubated inside of a 40″ tall humidity chamber supported by PVC pipe and covered in 3M translucent plastic. A humidifier was inside the chamber and set to low and continuous humidity (filled with tap water). The temperature was D:24-20° C./N:20-18° C. with 15 hours of light, of which 9 hours was with supplemental lighting. RH was ambient and watering occurred everyday by sub-irrigation with the bench being flooded for 10 minutes before draining.
Rating. Tomato plants were rated three times during the two-week experiment with rating starting four days post-inoculation and occurring every three to four days after the initial rating date. Plants were rated for the number of lesions and disease severity, which is the percentage of the plant that was symptomatic including necrotic lesions, pathogen sporulation, and chlorosis.
Data analysis. […] Percent disease severity (%DS) was determined by the percent area of the tomato foliage with symptoms including lesions, chlorosis, necrosis, and wilting. Disease severity was rated at three dates (Rating #) over the 12-day test period. Treatments were compared to the untreated, inoculated control and a chemical standard. Statistical analysis was done using SAS JMP version 13.2.1 with treatments compared to the untreated, inoculated control and a chemical standard using Tukey-Kramer and student's T tests.

[3] = system: Botrytis cinerea isolate (B05.10); experiment: Detached leaf assay (tomato leaflets, lesion size); assay type: in vivo; details: five days post inoculation, vs untreated inoculated control
Method: Plant tissue. Tomato plants, variety Brandywine, were grown in the greenhouse for 3 weeks before harvesting the first true leaves for assays. Nodes 2-4 were prioritized for harvest and only lateral leaflets were used for assays. Leaflets of approximately the same size were used each week and were randomized among treatments. Detached leaflets were immediately brought into the lab for treatment and used within 4 hours of harvest. Detached leaflets were kept at 4° C. until they were treated and placed onto a 1% water agar medium for incubation.
Fungal culture. A Botrytis cinerea isolate (B05.10) was preserved on silica for long-term storage and pulled from these tubes stored at 4° C. for growth on a nutritive medium. Three pellets of silica were added to the center of a Malt Extract Agar (MEA) agar plate and grown at room temperature without parafilm/tape seal for ˜14 days, or until abundant conidia formation, before use.
Treatment of leaflets. Leaflets were treated 24 hours before inoculation and applied using an atomizer to get a fine mist of small droplets entirely covering the leaflet. Silwet L-77 was used as a spreader and added for a 0.03% final concentration (Silwet L-77 brand Phyto Technology Laboratories, S7777 Lot #14D7777001 F). The inoculated control was sprayed with the same volume of sterile DI water with Silwet L-77 in the absence of fungicide or experimental material. Leaflets were spray treated by laying them on a paper towel and holding the atomizer ˜6″ away from the leaflet for applications. Treated leaves were placed on a 1% water agar (10 g Bacto Agar, Difco, in 1 L deionized water, sterilized for 30 minutes at 121° C. and poured when reached a temp of 55° C. into 100×20 mm Petri dishes), with lids of the Petri dishes placed back on before putting Petri dishes under plastic bags to maintain humidity before inoculation the following day. Petri dishes of treated leaflets were left on the lab counter until the following day. Each treatment was replicated ten times with each replicate being a single treated leaflet with two inoculation sites, one on each side of the leaf midvein.
Inoculation. The conidial suspension was prepared by pouring a 7% white grape juice solution onto the culture plate, then scraping the plate with a sterile spatula to dislodge the spores and mycelia. The grape juice solution was prepared by mixing Welch's brand organic white grape juice into sterile deionized water. After dislodging the spores and mycelia of the culture, the suspension was poured through two layers of cheesecloth to remove fungal mycelia and catch the conidial suspension in a clean 50 mL conical tube. Approximately 3 uL of TWEEN 20 was added to conidial suspension to prevent sticking to conical tube. The spore concentration was determined using a Neubauer Improved hemocytometer and inoculum was diluted with more 7% grape juice until a spore concentration of 1×10^5 conidia/mL was reached. Inoculum was used to inoculate host tissue within 2 hours of preparation. Each tomato leaflet was inoculated twice, with inoculation sites placed one per side of the leaflet midvein. A 10 μL volume of spore suspension was placed at each inoculation site using a repeater pipette. Special care was taken not to touch the tip to leaflet surface to avoid contamination between treatments.
Incubation. Petri dishes were placed on lunch trays 6 plates high and moved to an incubator. The incubator was humidity controlled and holds at ˜75% relative humidity. The incubator was kept on 12/12 light/dark days and is set to a temperature of 23° C.
Rating. Measurements were taken at five days post inoculation (DPI). Each lesion that developed was measured using electronic calipers in 2 directions perpendicular to each other to help determine lesion diameter.
Data analysis. Data was analyzed using the SAS JMP statistical program (version 13.2.1) with comparisons made to the untreated, inoculated control. […]

B1: GS245: dsRNA trigger targeting B. cinerea Sec18/Cdc48_2 (XM_024693092.1); trigger SEQ ID NO 13, RNA 25, reverse complement 37 (nucleic acid, listed as Botrytis cinerea)
sense: UCAAGAGAGCCGAAGGUCAUAAACGGUCCUGAAGUGCUUAAUAAAUACGUUGGUCAAUCCGAAGAAAAUAUCCGAAAGCUUUUUGCCGAUGCCGAAAAGGAGUACAAGGAAAAGGGAGACGAGAGUGGUCUUCAUAUCAUCAUUUUCGACGAAUUGGAUGCCGUUUGCAAACAAAGAGGAAGUGGAUCAGGUGGCGGAACUGGUGUUGGCGACAGUGUGGUCAAUCAACUGUUGUCUAAGCUUGAUGGUGUUGACCAGCUCAAUAACAUUCUACUUAUUGGAAUGACCAAUCGUAUGGAUAUGAUUGAUGACGCGCUUCUCAGACCCGGACGUUUAGAAGUUCACAUGGAAAUUUCCCUGCCAGAUGAAGCUGGCAGAGCACAAAUUCUUAAGAUUCAUACGUCCAAGAUGUUAAAGAAUGAUGUCAUGGAUACAGAUGUCGAUGUUGCUGAACUUGCUCAUCUAACCAAGAACUUCUCGGGAGCUGAAAUUG
antisense: CAAUUUCAGCUCCCGAGAAGUUCUUGGUUAGAUGAGCAAGUUCAGCAACAUCGACAUCUGUAUCCAUGACAUCAUUCUUUAACAUCUUGGACGUAUGAAUCUUAAGAAUUUGUGCUCUGCCAGCUUCAUCUGGCAGGGAAAUUUCCAUGUGAACUUCUAAACGUCCGGGUCUGAGAAGCGCGUCAUCAAUCAUAUCCAUACGAUUGGUCAUUCCAAUAAGUAGAAUGUUAUUGAGCUGGUCAACACCAUCAAGCUUAGACAACAGUUGAUUGACCACACUGUCGCCAACACCAGUUCCGCCACCUGAUCCACUUCCUCUUUGUUUGCAAACGGCAUCCAAUUCGUCGAAAAUGAUGAUAUGAAGACCACUCUCGUCUCCCUUUUCCUUGUACUCCUUUUCGGCAUCGGCAAAAAGCUUUCGGAUAUUUUCUUCGGAUUGACCAACGUAUUUAUUAAGCACUUCAGGACCGUUUAUGACCUUCGGCUCUCUUGA
In the case of B1, the “Average % Reduction in Biomass” value ([1]; 25 ppm dsRNA) is reported as 12%, the “Average % Reduction in Biomass” value ([1]; 150 ppm dsRNA) is reported as 7% and the “% control” value [2] is reported as 33%. For the same molecule, the “Average % Reduction in Lesion Size” value ([3]; 30 ppm) was 34.78% and the “Average % Reduction in Lesion Size” value ([3]; 50 ppm) was 30.52%.

B2: GS2651: dsRNA trigger targeting B. cinerea Bcsec15 (XM_024692064.1); trigger SEQ ID NO 52, RNA 56, reverse complement 60 (nucleic acid, listed as Botrytis cinerea)
sense: UAUGCCUGUCAAUAGCGAAGAAGACUUUGAUAAAAUCAUUCAAGUCAGUUGGUAUGUUCCGGACAGACCGAAAGAAGAAUACACAUUCCCCGGUGUAUUACCAUUCUCCCAGAUGUACCCAAUGUGCUGUAUAGAUAUCAGAAAUUUCCUGAAUCGAUUCUACUUCAUAAUGGAUGAUCAUUUUCAACAGCCAAACAUUAUUGAUGAGACACUUAAGAAGUCGAUAGAUGAGCUUCUGUCUGAGGAUAUUU
antisense: AAAUAUCCUCAGACAGAAGCUCAUCUAUCGACUUCUUAAGUGUCUCAUCAAUAAUGUUUGGCUGUUGAAAAUGAUCAUCCAUUAUGAAGUAGAAUCGAUUCAGGAAAUUUCUGAUAUCUAUACAGCACAUUGGGUACAUCUGGGAGAAUGGUAAUACACCGGGGAAUGUGUAUUCUUCUUUCGGUCUGUCCGGAACAUACCAACUGACUUGAAUGAUUUUAUCAAAGUCUUCUUCGCUAUUGACAGGCAUA
With B2 the “Average % Reduction in Biomass” value ([1]; 25 ppm dsRNA) was 21%, the “Average % Reduction in Biomass” value ([1]; 150 ppm dsRNA) was 54% and the “Average % Reduction in Lesion Size” value ([3]; 30 ppm) was 9.38%. The “Average % Reduction in Lesion Size” value ([3]; 50 ppm) was 12.74%.
